# Like-named read-outs stand apart in the source and are kept apart here.
# B1: SHIP2 SAM domain (isolated) (domain or fragment)
# chain: GMSAWLRAIGLERYEEGLVHNGWDDLEFLSDITEEDLEEAGVQDPAHKRLLLDTLQLSK
# Assays:
# Test in all cases: MST
# [1] = biological target: EphA2 ICRΔSAM, kinase-dead (D739N) (human)
# [2] = biological target: EphA2 ICRΔSAM, wildtype, phosphorylated (human)
# [3] = biological target: EphA2 intracellular region (ICR), kinase-dead (D739N) (human) (UniProt P29317)
# [4] = biological target: EphA2 intracellular region (ICR), wildtype, phosphorylated (human) (UniProt P29317)
# [5] = biological target: EphA2 ICRΔSAM, wildtype, phosphorylated (human); remark: listed apart in the source
# Target sequence in this assay (P29317 899-973, stated change not applied): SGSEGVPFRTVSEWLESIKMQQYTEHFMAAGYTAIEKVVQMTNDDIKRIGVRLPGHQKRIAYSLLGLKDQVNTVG
molecule,measurement,setting,value
"EphA2 ICRΔSAM, kinase-dead (D739N) (domain or fragment)",Kd,[1],1 µM
"EphA2 ICRΔSAM, wildtype, phosphorylated (domain or fragment)",Kd,[2],5.4 µM
"EphA2 intracellular region (ICR), kinase-dead (D739N) (from UniProt P29317 559-976) (domain or fragment)",Kd,[3],1.3 µM
"EphA2 intracellular region (ICR), wildtype, phosphorylated (from UniProt P29317 559-976) (domain or fragment)",Kd,[4],15 µM
B1,Kd,[5],7.5 µM

# — paper doi:10.1101/2025.09.29.679228
